Results as given in US20260176374A1 (published 2026).

Tests used:
Test in all cases: BLI
14949 = molecular target: 14949
19429 = molecular target: 19429
19113 = molecular target: 19113

B1: hEPOR (receptor)
chain: APPPNLPDPKFESKAALLAARGPEELLCFTERLEDLVCFWEEAASAGVGPGNYSFSYQLEDEPWKLCRLHQAPTARGAVRFWCSLPTADTSSFVPLELRVTAASGAPRYHRVIHINEVVLLDAPVGLVARLADESGHVVLRWLPPPETPMTSHIRYEVDVSAGNGAGSVQRVEILEGRTECVLSNLRGRTRYTFAVRARMAEPSFGGFWSAWSEPVSLLTPSDLDP
A Kd 14949 of 2 nM, a Kd 19429 of 0.8 nM and a Kd 19113 of 2 nM were found for B1 in this work.
